Reference: PMC2773007

Biological target: Dvl2 PRR2 mutant (Δ370–376), FLAG-tagged (human) (UniProt O14641)
Sequence of UniProt O14641 (O14641 other isoform, or with tags, fused parts or gaps mutant): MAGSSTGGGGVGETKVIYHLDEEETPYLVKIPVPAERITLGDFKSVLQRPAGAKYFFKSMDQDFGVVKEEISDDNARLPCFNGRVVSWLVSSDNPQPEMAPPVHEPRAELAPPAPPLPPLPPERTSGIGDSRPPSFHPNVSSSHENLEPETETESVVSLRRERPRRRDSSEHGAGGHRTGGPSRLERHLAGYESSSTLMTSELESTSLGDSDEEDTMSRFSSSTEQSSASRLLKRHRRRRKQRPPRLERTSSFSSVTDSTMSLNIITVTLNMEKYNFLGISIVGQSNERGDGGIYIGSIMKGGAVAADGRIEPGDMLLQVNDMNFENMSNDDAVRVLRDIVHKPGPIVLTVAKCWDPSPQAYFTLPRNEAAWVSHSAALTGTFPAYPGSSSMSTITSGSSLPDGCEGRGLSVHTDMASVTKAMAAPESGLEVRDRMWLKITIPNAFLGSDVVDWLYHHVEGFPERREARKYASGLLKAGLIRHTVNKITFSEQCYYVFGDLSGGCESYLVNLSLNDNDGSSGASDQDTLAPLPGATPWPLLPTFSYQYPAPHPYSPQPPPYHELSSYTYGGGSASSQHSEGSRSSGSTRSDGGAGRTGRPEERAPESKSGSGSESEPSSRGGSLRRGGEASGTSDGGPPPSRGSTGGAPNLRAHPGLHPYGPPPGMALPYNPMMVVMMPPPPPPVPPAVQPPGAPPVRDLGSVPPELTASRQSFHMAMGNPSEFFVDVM

- sTF LEF/TCF luciferase reporter in HEK293 cells, co-expression of the Dvl2 mutant and Grb2: 60 % decrease
Substance: HA-tagged Grb2 (human growth factor receptor-bound-2) (from UniProt P62993 1-217) (natural protein)
